Experimental findings from publication PMC9455167 are described below.

Assay [1] addresses Recombinant human Src kinase (Abcam 79635) (human) (UniProt P12931). Briefly: MST; RED-tris-NTA-labelled His-tagged Src kinase constant at 50 nM; unlabelled Na,K-ATPase 0.2 nM to 16 µM; 50 mM Tris/HCl pH 7.4, 150 mM NaCl, 10 mM MgCl2; Monolith NT.115, LED 100%, MST power 40%.
The target is the same in assay [2].

On to “Na,K-ATPase purified from duck salt glands (complex)”, for which, in assay [1], the Kd (as a rule, the constant that tells how readily two partners part at equilibrium) is 210 nM. The reduction of Src autophosphorylation at Tyr416 in vitro (purified Na,K-ATPase, Src kinase, ATP; Western blot p-Src/Src) in assay [2] came to 70%.
